Our source for the Kd values is publication PMC3226747 (Nature, 2011).

This assay concerns the target T1, MitTxβ (Micrurus tener tener (Texas coral snake), UniProt G9I930 31-149, disulfide bonds).
T1 sequence: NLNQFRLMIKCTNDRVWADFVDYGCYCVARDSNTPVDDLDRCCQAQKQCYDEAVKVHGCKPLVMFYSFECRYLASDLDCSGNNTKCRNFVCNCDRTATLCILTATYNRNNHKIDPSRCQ
Put plainly: ITC. In general terms: In ITC the heat of successive injections is recorded.

Where no end group is shown, it is not given here. [ ]: non-standard residue; d: D form. pGlu = O=C1CC[C@@H](C(=O)O)N1

B1: MitTxα (natural protein)
chain: [pGlu]IRPAFCYEDPPFFQKCGAFVDSYYFNRSRITCVHFFYGQCDVNQNHFTTMSECNRVCHG
modifications: not fully specified (bridges); also: disulfide bonds, pairing not given here
A word on the Kd: it is a measure of binding affinity in units of concentration. Low values mean tighter binding, high ones weaker binding. Molecule B1 yielded a Kd of 12.2 ± 3.1 nM.
